Target: rFKBP22 (a recombinant E. coli FKBP22) (Escherichia coli) (UniProt P0A9L3)
Test: cross-linking; glutaraldehyde-mediated chemical cross-linking of rFKBP22 (bound/unbound with rapamycin) at 30°–85°C, analysed by SDS-13.5% PAGE

- stoichiometry N: 2
Substance: rFKBP22 (a recombinant E. coli FKBP22) (from UniProt P0A9L3 1-206) (enzyme)

Source: article PMC4114562
